Data: the supplement of paper PMC7877785
± gives the uncertainty stated by the source.

Assay: self-splicing fitness, log relative to wild type (ln ratio); higher = more splicing; Tetrahymena group I intron in knt gene, E. coli kanamycin selection, DiMSum; sequences stand for … in CUCUCU…GGAGGGAAAAGUUAUCAGGCAUGCACCUGGUAGCUAGUCUUUAAACCAAUAGAUUGCAUCGGUUUAAAAGGCAAGACCGUCAAAUUGCGGGAAAGGGGUCAACAGCCGUUCAGUACCAAGUCUCAGGGGAAACUUUGAGAUGGCCUUGCAAAGGGUAUGGUAAUAAGCUGACGGACAUGGUCCUAACCACGCAGCCAAGUCCUAAGUCAACAGAUCUUCUGUUGAUAUGGAUGCAGUUCACAGACUAAAUGUCGGUCGGGGAAGAUGUAUUCUUCUCAUAAGAUAUAGUCGGACCUCUCCUUAAUGGGAGCUAGCGGAUGAAGUGAUGCAACACUGGAGCCGCUGGGAACUAAUUUGUAUGCGAAAGUAUAUUGAUUAGUUUUGGAGUACUCGUGGUCG
How it was run: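 Library with all eight P1ex-region intron nucleotides randomised, intron inside the knt kanamycin-resistance gene on pET-22b(+), in E. coli BL21(DE3). Cells grew overnight at 37°C or 30°C on LB agar with or without 25 μg/mL kanamycin (plus 100 μg/mL carbenicillin, 50 μM IPTG, 0.2% rhamnose), in six replicate transformations. Pooled colonies were amplicon-sequenced on Illumina HiSeq 2500. DiMSum fitness is the error-weighted combination of wild-type-normalised replicate fold changes, kanamycin versus none.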

| Sequence | self-splicing fitness (ln) (30 °C) | self-splicing fitness (ln) (37 °C) |
| --- | --- | --- |
| AAGGAGCAAUAUUACGCUGC | -3.07 ± 0.38 | -2.68 ± 0.26 |
| AAGGAGCAAUAUUACGCUUG | -1.86 ± 0.1 | -0.799 ± 0.13 |
| AAGGAGCAAUAUUACGGAAA | – | -0.83 ± 0.24 |
| AAGGAGCAAUAUUACGGGGU | -3.61 ± 0.18 | -2.31 ± 0.15 |
| AAGGAGCAAUAUUACGGUAC | -3.2 ± 0.47 | -2.19 ± 0.4 |
| AAGGAGCAAUAUUACGUAAC | -3.28 ± 0.25 | -2.96 ± 0.43 |
| AAGGAGCAAUAUUACGUACA | -2.75 ± 0.33 | -2.11 ± 0.21 |
| AAGGAGCAAUAUUACGUACU | -0.884 ± 0.11 | -0.189 ± 0.11 |
| AAGGAGCAAUAUUACGUAGC | – | -2.18 ± 0.42 |
| AAGGAGCAAUAUUACGUGCA | -3.03 ± 0.18 | -1.37 ± 0.17 |
| AAGGAGCAAUAUUACGUGCC | -3.03 ± 0.37 | -0.905 ± 0.39 |
| AAGGAGCAAUAUUACGUUUA | -2.95 ± 0.24 | -1.66 ± 0.16 |
| AAGUAGCAAUAUUACGAACG | -1.86 ± 0.11 | -1.17 ± 0.13 |
| AAGUAGCAAUAUUACGAAUU | -1.94 ± 0.12 | -0.748 ± 0.15 |
| AAGUAGCAAUAUUACGACCU | 0.0875 ± 0.13 | -0.703 ± 0.17 |
| AAGUAGCAAUAUUACGAUGC | -2.76 ± 0.16 | -0.209 ± 0.15 |
| AAGUAGCAAUAUUACGAUGG | -3.03 ± 0.2 | -2.75 ± 0.33 |
| AAGUAGCAAUAUUACGCUCU | -1.25 ± 0.18 | -1.29 ± 0.17 |
| AAGUAGCAAUAUUACGGCAU | -0.18 ± 0.094 | 0.382 ± 0.12 |

| Sequence | self-splicing fitness (ln) (30 °C) | self-splicing fitness (ln) (37 °C) |
| --- | --- | --- |
| AAGUAGCAAUAUUACGUCCC | -0.0634 ± 0.3 | -0.156 ± 0.24 |
| AAGUAGCAAUAUUACGUGCA | -0.781 ± 0.074 | -0.196 ± 0.098 |
| AAUAAGCAAUAUUACGAACA | -0.812 ± 0.15 | -0.462 ± 0.15 |
| AAUAAGCAAUAUUACGAACG | -1.5 ± 0.12 | -0.285 ± 0.17 |
| AAUAAGCAAUAUUACGACAA | -0.398 ± 0.13 | -0.323 ± 0.12 |
| AAUAAGCAAUAUUACGACGU | 0.233 ± 0.057 | 0.618 ± 0.072 |
| AAUAAGCAAUAUUACGAUAC | -2.25 ± 0.25 | -1.44 ± 0.44 |
| AAUAAGCAAUAUUACGAUUG | -2.35 ± 0.18 | -1.91 ± 0.23 |
| AAUAAGCAAUAUUACGCAAA | -1.62 ± 0.23 | -2.05 ± 0.25 |
| AAUAAGCAAUAUUACGCUAA | -2.46 ± 0.16 | -0.891 ± 0.13 |
| AAUAAGCAAUAUUACGCUAG | -1.79 ± 0.18 | -1.17 ± 0.17 |
| AAUAAGCAAUAUUACGCUGC | -3.69 ± 0.3 | -2.67 ± 0.38 |
| AAUAAGCAAUAUUACGCUUA | -3.19 ± 0.26 | -1.74 ± 0.22 |
| AAUAAGCAAUAUUACGGCAU | 0.0296 ± 0.085 | -0.0272 ± 0.097 |
| AAUAAGCAAUAUUACGGGUA | -2.49 ± 0.21 | -1.32 ± 0.14 |
| AAUAAGCAAUAUUACGGGUC | -3.18 ± 0.2 | -2.53 ± 0.22 |
| AAUAAGCAAUAUUACGGUUC | -2.72 ± 0.14 | -1.77 ± 0.15 |
| AAUAAGCAAUAUUACGUAAU | -1.38 ± 0.1 | -0.587 ± 0.13 |
| AAUAAGCAAUAUUACGUAUA | -1.76 ± 0.12 | -1.56 ± 0.13 |
